Test results published in patent US20130344053A1, “Methods of Modifying Insulin Signaling Using Biliverdin Reductase (BVR) and BVR Derived Peptides” (University of Rochester, priority 2010, published 2013).

How the values were obtained:
[1] = system: rat smooth muscle cells (PAC1); assay: Glucose uptake in PAC1 cells (IGF-dependent); assay type: cell-based; details: myristoylated peptide 2 h, then IGF-1 50 ng/ml 10 min
Protocol: Glucose uptake was tested as described infra. Cells were starved in low glucose serum-depleted DMEM for 20 hours prior to transfer to PBS containing CaCl2, MgCl2. After 2 hrs myristoylated peptides were added to the medium for 2 hours. Thereafter, IGF-1 (50 ng/ml) or insulin (100 nM) was added (10 min) and glucose uptake was tested for 3 min in the presence of methyl-D-glucose,3-O-[methyl-3H]. Subsequently cells were washed 3 times in cold PBS and solubilized in NaOH (0.05 mM). Aliquots were measured for radioactivity. Non-specific binding or diffusion were tested by addition of 300 mM glucose to the cells. This value was deducted from the total counts (on the average <20%) and results were normalized for protein concentration.
(§1) FIGS. 15A-B show the effect of hBVR-based peptides on IGF-dependent glucose uptake in rat smooth muscle cells (PAC1) (FIG. 15A) and insulin-dependent glucose uptake in human epithelial kidney (HEK) cells (FIG. 15B). Cells were treated as described for FIG. 14 and glucose uptake was measured as described infra.
(§2) The therapeutic utility of various BVR peptides with regard to their ability to modify insulin and insulin growth factor (IGF) mediated cellular glucose uptake was evaluated. Human embryonic kidney cells (HEK293) or rat aortic smooth muscle cells (PAC) were starved in low glucose serum-depleted DMEM for twenty hours prior to transfer to PBS containing CaCl2, MgCl2. After two hours, myristoylated peptides were added to the medium for two additional hours. Thereafter, IGF-1 (50 ng/ml) or insulin (100 nM) was added (10 min) and glucose uptake was tested for three minutes in the presence of methyl-D-glucose,3-O-[methyl-3H]. Subsequently, cells were washed three times in cold PBS and solubilized in NaOH (0.05 mM). Aliquots were measured for radioactivity. Non-specific binding or diffusion was tested by addition of 300 mM glucose to the cells. This value was deducted from the total counts (on the average <20%) and results were normalized for protein concentration.

[2] = system: human epithelial kidney (HEK) cells; assay: Insulin-dependent glucose uptake in HEK cells; assay type: cell-based; details: myristoylated peptide 2 h, then insulin 100 nM 10 min
Protocol: as §1, §2

293A cells = assay: Insulin-mediated glucose uptake (2DG) in 293A cells; assay type: cell-based, human; details: insulin 15 min, 2DG 15 min, vs controls infected with vector alone, p≦0.05
Protocol: FIG. 12A-D illustrates that “knock-down” BVR and Y^198 detection increased glucose uptake into 293A cells upon insulin induction. As shown in the graph of FIG. 12A, insulin treatment increases BVR activity. 293A cells were treated with insulin (50 nM) and subsequently used at indicated time points for BVR activity measurement. […] Purified BVR was phosphorylated by IRK for the indicated periods. Reactions were terminated by diluting with PBS and freezing at −20° C. BVR activity was determined as in FIG. 12A, and normalized to that of the control (43.8 μmol per min per mg). […] 293A cells were incubated with insulin and after 8 min or 30 min, subjected to immunoprecipitation using anti-human BVR antibodies. The phosphorylated BVR was visualized by immunoblotting using anti-tyrosine antibodies. ECL system was used for visualization of phosphorylated BVR. […]
Glucose uptake was assessed by measuring 2-deoxy 1-[^3H] glucose (2DG) absorption as described by (Braiman et al. (Mol. Endocrinol. 13:2002-12 (1999)), which is hereby incorporated by reference), with minor modifications. […] Radioactivity was measured and data was normalized to protein concentration. Non-specific uptake was determined in the presence of 200 mM of glucose and was subtracted from the total uptake. […]

[3] = system: insulin receptor substrate-1 (IRS-1) peptide Y^608
[4] = target: T1, insulin receptor kinase (IRK) (Homo sapiens, UniProt P06213); assay: BVR phosphorylation by the insulin receptor tyrosine kinase (IRK); assay type: biochemical; details: tyrosine point mutant as IRK substrate, 2 h at 30° C.
T1 construct: GST-hBVR fusion protein and the 48 kDa cytoplasmic domain of the β-subunit of IRK; purchased Biomol International (Plymouth, Pa.)
T1 sequence (P06213 980-1382 limits assumed): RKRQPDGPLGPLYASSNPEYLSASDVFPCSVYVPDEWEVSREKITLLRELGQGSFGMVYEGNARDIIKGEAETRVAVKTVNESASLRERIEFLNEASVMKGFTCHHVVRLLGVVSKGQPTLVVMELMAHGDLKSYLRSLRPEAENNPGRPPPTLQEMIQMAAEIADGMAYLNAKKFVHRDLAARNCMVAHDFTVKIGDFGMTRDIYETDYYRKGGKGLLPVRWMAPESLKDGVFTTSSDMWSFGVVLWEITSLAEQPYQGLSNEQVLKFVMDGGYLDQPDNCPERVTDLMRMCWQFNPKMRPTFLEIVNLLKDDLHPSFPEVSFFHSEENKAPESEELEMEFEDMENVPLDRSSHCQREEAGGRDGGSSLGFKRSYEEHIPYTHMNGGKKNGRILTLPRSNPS
Protocol: FIGS. 7A-B illustrate BVR as a substrate for insulin receptor kinase. […] 10 μg purified wtBVR was incubated in 100 μl kinase assay buffer (pH 8.0) containing 0.1 μg IRK, 10 μM ATP, and 20 μCi [^32P]-ATP at 25° C. up to 4 h. The reaction was terminated by the addition of Laemmli buffer at different points of time as indicated. Samples were separated using 8% SDS-PAGE gel and transferred onto PVDF filter, and phosphorylated protein bands were visualized by autoradiography. […] From left to right lane 1, wtBVR plus IRK in the presence of 50 mM EDTA (pH 8.0); lane 2, wtBVR plus IRK; lane 3, wtBVR in the absence of IRK. The reaction mixtures were subjected to SDS-PAGE electrophoresis and transferred onto a polyvinylidene fluoride (“PVDF”) filter. The blot was immuno-stained with anti-phosphotyrosine antibodies and ECL detection system was used to visualize phosphorylated tyrosines. […] In FIG. 8A the Y^198 residue of BVR is phosphorylated by IRK. Purified wtBVR and Y^198 mutant BVR were incubated with IRK at 30° C. for 2 h. Samples were subjected to SDS-PAGE electrophoresis and processed as described in FIG. 8B. FIG. 8B is a time course of Y^198 mutant BVR phosphorylation by IRK. A purified preparation of human BVR that carried Y^198 mutation was incubated with IRK for up to 3 h as described in FIG. 7A. Samples taken at the indicated time-points were analyzed for detection of phosphorylated proteins as above. […] Subsequently, samples were subjected to SDS-PAGE, stained with Coomassie blue and visualized bands were excised and used for measurement of radioactive content. The experiments were repeated three times. […] The indicated double mutants of BVR were used as substrates for IRK and analysis was carried out as in FIG. 8A. FIGS. 10A-B illustrate that autophosphorylation of BVR is an Mn^+2 dependant kinase reaction. […] The effects of different metal ions (30 mM MnCl2, 20 mM MgCl2, 20 mM CaCl2, 20 mM Zn acetate) and their combinations were analyzed as indicated in the text. […] The reactions were carried out in HEPES buffer (pH 8.0) in the presence of 20 mM MgCl2 as described in the Examples. Phosphorylation of BVR by IRK was examined using GST-hBVR fusion protein and the 48 kDa cytoplasmic domain of the β-subunit of IRK. BVR (5 μg) was incubated in 50 μl of IRK kinase buffer containing 50 mM HEPES (pH 8.0), 20 mM MgCl2, 1 mM DTT in the presence of 0.05 μg IRK and 10 μM ATP labeled with 10 μCi [γ-^32P]-ATP. The reaction was started with the addition of labeled ATP and incubated for 2-4 h. Reactions were terminated by addition of Laemmli sample buffer and boiled for 3 min. Samples were subjected to 8% SDS-PAGE and transferred to PVDF membranes for autoradiography.

human BVR = assay: BVR autophosphorylation; assay type: biochemical; details: pH 8.4, 30 mM MnCl2, 2 h at 30° C.
Protocol: In FIG. 9A, effect of tyrosine mutations of BVR on its autophosphorylation is shown. Human wtBVR and BVR with mutations in tyrosine were used in the experiment to determine autophosphorylation of BVR. The reactions were performed as described in the Examples. FIG. 9B is a graph showing that BVR tyrosine kinase activity was checked by incubating 5 μg purified BVR with 5 μg Raytide in 50 μl kinase buffer containing 10 μM labeled ATP for 2 h at 30° C. The aliquots of the reaction were transferred onto P81 Whatman filters and radioactivity due to phosphorylation was measured using a scintillation counter.
FIGS. 10A-B illustrate that autophosphorylation of BVR is an Mn^+2 dependant kinase reaction. […] The effects of different metal ions (30 mM MnCl2, 20 mM MgCl2, 20 mM CaCl2, 20 mM Zn acetate) and their combinations were analyzed as indicated in the text. […] Phosphorylation of wtBVR by IRK in the presence of tyrosine kinase inhibitor genestein (200 μM); DMSO was used as the vehicle for genestein and was included in the control reaction mixture. The reactions were carried out in HEPES buffer (pH 8.0) in the presence of 20 mM MgCl2 as described in the Examples.
To detect autophosphorylation of BVR, GST-hBVR of wild type (wt) and mutant variants were incubated in 50 mM HEPES buffer (pH 8.4) in the presence of 30 mM MnCl2 and 1 mM DTT for 2 h at 30° C. The reaction was started with the addition of 10 μM ATP labeled with 10 μCi [γ-^32P]-ATP and was stopped with the addition of Laemmli sample buffer. Samples were boiled for 3 min and applied to a 8% SDS-PAGE gels, transferred to a PVDF membrane, and then visualized by autoradiography. […] The reaction was started with the addition of ATP and terminated by adding 120 μl 10% H3PO4. 100 μl aliquots were directly transferred to P81 Whatman filters which were subsequently washed extensively in 0.75% phosphoric acid at room temperature. Finally, the filters were submerged in acetone for 5 min, dried, and retained counts were measured using a Beckman LS 6500 liquid scintillation counter (Beckman Coulter, Fullerton, Calif.).

KRNRYLSF (Biliverdin reductase derived peptide) [hBVR peptide, amino acids 224-231 of BVR]
IGF-mediated cellular glucose uptake in PAC1 cells [1]: inhibit IGF-mediated cellular glucose uptake | insulin mediated cellular glucose uptake in HEK cells [2]: antagonizing insulin mediated cellular glucose uptake

siBVR: human BVR siRNA, target nt96-nt116, expressed from retroviral vector pSuper-Retro-siBVR (chain 1 UCCUCAGCGUUCCUGAACCUG; chain 2 AGGAGUCGCAAGGACUUGGAC)
insulin-mediated glucose uptake by cells (293A cells): significantly increased insulin-mediated glucose uptake

GST-hBVR G17 mutant (GVGRA to GVARA), ATP binding domain mutant
IRS phosphorylation by BVR (kinase assay) [3]: G^17 mutation, for the most part, prevented IRS phosphorylation by BVR

B1: Y^198: human BVR point mutant DQYMK to DQFMK (protein, UniProt P53004 3-296, looked up, variant Y198F)
Biliverdin reductase A: AEPERKFGVVVVGVGRAGSVRMRDLRNPHPSSAFLNLIGFVSRRELGSIDGVQQISLEDALSSQEVEVAYICSESSSHEDYIRQFLNAGKHVLVEYPMTLSLAAAQELWELAEQKGKVLHEEHVELLMEEFAFLKKEVVGKDLLKGSLLFTAGPLEEERFGFPAFSGISRLTWLVSLFGELSLVSATLEERKEDQFMKMTVCLETEKKSPLSWIEEKGPGLKRNRYLSFHFKSGSLENVPNVGVNKNIFLKDQNIFVQKLLGQFSEKELAAEKKRILHCLGLAEEIQKYCCSRK
insulin-mediated glucose uptake by cells (293A cells): increased significantly | reduction of extent of BVR phosphorylation by IRK compared with wtBVR [4]: ~70% | autophosphorylation of BVR (mutants) (human BVR): did not result in significant changes in autophosphorylation of BVR
